≈ marks a conversion by molar mass, not a printed value.
How the values were obtained:
[1] = tested on: Escherichia coli; experiment: Antimicrobial activity against Escherichia coli TOP10 harboring pADC-11 plasmid with entire blaAmpC gene by Etest method; format: functional
[2] = tested on: Escherichia coli; experiment: Antimicrobial activity against Escherichia coli TOP10 harboring pADC-11 plasmid carrying entire blaAmpC gene with alanine residue insertion at 215 position and R210P substitution by Etest method; format: functional
[3] = tested on: Acinetobacter baumannii; experiment: Antimicrobial activity against Acinetobacter baumannii AYE expressing VEB-1 gene by Etest method in presence of clavulanic acid; format: functional
[4] = tested on: Escherichia coli; experiment: Antimicrobial activity against Escherichia coli TOP10 harboring pADC-50 plasmid by Etest method; format: functional
[5] = tested on: Escherichia coli; experiment: Antimicrobial activity against Escherichia coli TOP10 harboring pADC-33 plasmid by Etest method in presence of clavulanic acid; format: functional
[6] = tested on: Acinetobacter baumannii; experiment: Antimicrobial activity against Acinetobacter baumannii KI by Etest method; format: functional
[7] = tested on: Acinetobacter baumannii; experiment: Antimicrobial activity against Acinetobacter baumannii CIP70.10 by Etest method in presence of clavulanic acid; format: functional
[8] = tested on: Escherichia coli; experiment: Antimicrobial activity against Escherichia coli TOP10 harboring pADC-33 plasmid by Etest method; format: functional
[9] = tested on: Escherichia coli; experiment: Antimicrobial activity against Escherichia coli TOP10 harboring pADC-11 plasmid carrying entire blaAmpC gene with alanine residue insertion at 215 position by Etest method in presence of clavulanic acid; format: functional
[10] = tested on: Acinetobacter baumannii; experiment: Antimicrobial activity against Acinetobacter baumannii KI by Etest method in presence of clavulanic acid; format: functional
[11] = tested on: Escherichia coli; experiment: Antimicrobial activity against Escherichia coli TOP10 harboring pADC-33 plasmid carrying entire blaAmpC gene by Etest method in presence of clavulanic acid; format: functional
[12] = tested on: Escherichia coli; experiment: Antimicrobial activity against Escherichia coli TOP10 harboring pADC-11 plasmid carrying entire blaAmpC gene by Etest method in presence of clavulanic acid; format: functional
[13] = tested on: Escherichia coli; experiment: Antimicrobial activity against Escherichia coli TOP10 harboring pADC-11 plasmid by Etest method in presence of clavulanic acid; format: functional
[14] = tested on: Escherichia coli; experiment: Antimicrobial activity against Escherichia coli TOP10 harboring pADC-33 plasmid carrying entire blaAmpC gene with alanine residue deletion at 215 position and R210P substitution by Etest method; format: functional
[15] = tested on: Escherichia coli; experiment: Antimicrobial activity against Escherichia coli TOP10 harboring pADC-33 plasmid carrying entire blaAmpC gene with alanine residue deletion at 215 position by Etest method in presence of clavulanic acid; format: functional
[16] = tested on: Acinetobacter baumannii; experiment: Antimicrobial activity against Acinetobacter baumannii CIP70.10 by Etest method; format: functional
[17] = tested on: Escherichia coli; experiment: Antimicrobial activity against Escherichia coli TOP10 harboring pADC-33 plasmid with entire blaAmpC gene with alanine residue deletion at 215 position by Etest method; format: functional
[18] = tested on: Escherichia coli; experiment: Antimicrobial activity against Escherichia coli TOP10 harboring pADC-11 plasmid by Etest method; format: functional
[19] = tested on: Escherichia coli; experiment: Antimicrobial activity against Escherichia coli TOP10 harboring pADC-11 plasmid carrying entire blaAmpC gene with alanine residue insertion at 215 position by Etest method; format: functional
[20] = tested on: Escherichia coli; experiment: Antimicrobial activity against Escherichia coli TOP10 harboring pADC-11 plasmid carrying entire blaAmpC gene with alanine residue deletion at 215 position and R210P substitution by Etest method in presence of clavulanic acid; format: functional
[21] = tested on: Acinetobacter baumannii; experiment: Antimicrobial activity against Acinetobacter baumannii AYE expressing VEB-1 gene by Etest method; format: functional
[22] = tested on: Escherichia coli; experiment: Antimicrobial activity against Escherichia coli TOP10 harboring pADC-33 plasmid carrying entire blaAmpC gene with alanine residue deletion at 215 position and R210P substitution by Etest method in presence of clavulanic acid; format: functional
[23] = tested on: Escherichia coli; experiment: Antimicrobial activity against Escherichia coli TOP10 harboring pADC-33 plasmid with entire blaAmpC gene by Etest method; format: functional
[24] = tested on: Escherichia coli; experiment: Antimicrobial activity against Escherichia coli TOP10 harboring pADC-50 plasmid by Etest method in presence of clavulanic acid; format: functional
[25] = tested on: Escherichia coli; experiment: Antimicrobial activity against Escherichia coli TOP10 harboring pTOPO plasmid by Etest method; format: functional
[26] = tested on: Escherichia coli; experiment: Antimicrobial activity against Escherichia coli TOP10 harboring pTOPO plasmid by Etest method in presence of clavulanic acid; format: functional
[27] = tested on: CO[C@@]1(NC(=O)Cc2cccs2)C(=O)N2C(C(=O)O)=C(COC(N)=O)CS[C@@H]21; experiment: Ratio of Kcat to Ki for Acinetobacter baumannii ADC-11 beta-lactamase
[28] = tested on: CC1(C)S[C@@H]2[C@H](NC(=O)Cc3ccccc3)C(=O)N2[C@H]1C(=O)O; experiment: (§1) Ratio of Kcat to Km for Acinetobacter baumannii ADC-11 beta-lactamase
[29] = tested on: CCN1CCN(C(=O)N[C@@H](C(=O)N[C@@H]2C(=O)N3[C@@H]2SC(C)(C)[C@@H]3C(=O)O)c2ccccc2)C(=O)C1=O; experiment: as §1
[30] = tested on: CO/N=C(\C(=O)N[C@@H]1C(=O)N2C(C(=O)[O-])=C(C[n+]3cccc4c3CCC4)CS[C@H]12)c1csc(N)n1; experiment: as §1
[31] = tested on: CC1(C)S[C@@H]2[C@H](NC(=O)[C@H](N)c3ccccc3)C(=O)N2[C@H]1C(=O)O; experiment: as §1
[32] = tested on: CC(C)(O/N=C(\C(=O)N[C@@H]1C(=O)N2C(C(=O)[O-])=C(C[n+]3ccccc3)CS[C@H]12)c1csc(N)n1)C(=O)O; experiment: as §1
[33] = tested on: O=C(Cc1cccs1)N[C@@H]1C(=O)N2C(C(=O)[O-])=C(C[n+]3ccccc3)CS[C@H]12; experiment: (§2) Activity of Acinetobacter baumannii ADC-11 beta-lactamase
[34] = tested on: CC1(C)S[C@@H]2[C@H](NC(=O)Cc3ccccc3)C(=O)N2[C@H]1C(=O)O; experiment: as §2
[35] = tested on: CCN1CCN(C(=O)N[C@@H](C(=O)N[C@@H]2C(=O)N3[C@@H]2SC(C)(C)[C@@H]3C(=O)O)c2ccccc2)C(=O)C1=O; experiment: as §2
[36] = tested on: CO/N=C(\C(=O)N[C@@H]1C(=O)N2C(C(=O)[O-])=C(C[n+]3cccc4c3CCC4)CS[C@H]12)c1csc(N)n1; experiment: as §2
[37] = tested on: CO/N=C(\C(=O)N[C@@H]1C(=O)N2C(C(=O)O)=C(COC(C)=O)CS[C@H]12)c1csc(N)n1; experiment: as §2
[38] = tested on: CC(=O)OCC1=C(C(=O)O)N2C(=O)[C@@H](NC(=O)Cc3cccs3)[C@H]2SC1; experiment: as §2
[39] = tested on: CC1(C)S[C@@H]2[C@H](NC(=O)[C@H](N)c3ccccc3)C(=O)N2[C@H]1C(=O)O; experiment: as §2
[40] = tested on: CC(C)(O/N=C(\C(=O)N[C@@H]1C(=O)N2C(C(=O)[O-])=C(C[n+]3ccccc3)CS[C@H]12)c1csc(N)n1)C(=O)O; experiment: as §2
[41] = tested on: CO[C@@]1(NC(=O)Cc2cccs2)C(=O)N2C(C(=O)O)=C(COC(N)=O)CS[C@@H]21; experiment: (§3) Activity of Acinetobacter baumannii ADC-33 beta-lactamase
[42] = tested on: O=C(Cc1cccs1)N[C@@H]1C(=O)N2C(C(=O)[O-])=C(C[n+]3ccccc3)CS[C@H]12; experiment: as §3
[43] = tested on: CC1(C)S[C@@H]2[C@H](NC(=O)Cc3ccccc3)C(=O)N2[C@H]1C(=O)O; experiment: as §3
[44] = tested on: CCN1CCN(C(=O)N[C@@H](C(=O)N[C@@H]2C(=O)N3[C@@H]2SC(C)(C)[C@@H]3C(=O)O)c2ccccc2)C(=O)C1=O; experiment: as §3
[45] = tested on: CO/N=C(\C(=O)N[C@@H]1C(=O)N2C(C(=O)[O-])=C(C[n+]3cccc4c3CCC4)CS[C@H]12)c1csc(N)n1; experiment: as §3
[46] = tested on: CC(=O)OCC1=C(C(=O)O)N2C(=O)[C@@H](NC(=O)Cc3cccs3)[C@H]2SC1; experiment: as §3
[47] = tested on: CC1(C)S[C@@H]2[C@H](NC(=O)[C@H](N)c3ccccc3)C(=O)N2[C@H]1C(=O)O; experiment: as §3
[48] = tested on: CC(C)(O/N=C(\C(=O)N[C@@H]1C(=O)N2C(C(=O)[O-])=C(C[n+]3ccccc3)CS[C@H]12)c1csc(N)n1)C(=O)O; experiment: as §3
[49] = tested on: O=C(Cc1cccs1)N[C@@H]1C(=O)N2C(C(=O)[O-])=C(C[n+]3ccccc3)CS[C@H]12; experiment: (§4) Ratio of Kcat to Km for Acinetobacter baumannii ADC-33 beta-lactamase
[50] = tested on: CC1(C)S[C@@H]2[C@H](NC(=O)Cc3ccccc3)C(=O)N2[C@H]1C(=O)O; experiment: as §4
[51] = tested on: CCN1CCN(C(=O)N[C@@H](C(=O)N[C@@H]2C(=O)N3[C@@H]2SC(C)(C)[C@@H]3C(=O)O)c2ccccc2)C(=O)C1=O; experiment: as §4
[52] = tested on: CO/N=C(\C(=O)N[C@@H]1C(=O)N2C(C(=O)[O-])=C(C[n+]3cccc4c3CCC4)CS[C@H]12)c1csc(N)n1; experiment: as §4
[53] = tested on: CC(=O)OCC1=C(C(=O)O)N2C(=O)[C@@H](NC(=O)Cc3cccs3)[C@H]2SC1; experiment: as §4
[54] = tested on: CC1(C)S[C@@H]2[C@H](NC(=O)[C@H](N)c3ccccc3)C(=O)N2[C@H]1C(=O)O; experiment: as §4
[55] = tested on: CO[C@@]1(NC(=O)Cc2cccs2)C(=O)N2C(C(=O)O)=C(COC(N)=O)CS[C@@H]21; experiment: (§5) Ratio of Kcat to Ki for Acinetobacter baumannii ADC-33 beta-lactamase
[56] = tested on: CO/N=C(\C(=O)N[C@@H]1C(=O)N2C(C(=O)O)=C(COC(C)=O)CS[C@H]12)c1csc(N)n1; experiment: as §5

## CC1(C)S[C@@H]2[C@H](NC(=O)[C@H](C(=O)O)c3ccsc3)C(=O)N2[C@H]1C(=O)O [TICARCILLIN]
[1]
  MIC: 256 µg/mL (≈ 666 µM)
[2]
  MIC: > 256 µg/mL
[3]
  MIC: 128 µg/mL
[4]
  MIC: 8 µg/mL (≈ 20.8 µM)
[5]
  MIC: 64 µg/mL
[6]
  MIC: > 256 µg/mL
[7]
  MIC: 8 µg/mL
[8]
  MIC: 64 µg/mL (≈ 166 µM)
[9]
  MIC: > 256 µg/mL
[10]
  MIC: 64 µg/mL
[11]
  MIC: > 256 µg/mL
[12]
  MIC: 256 µg/mL
[13]
  MIC: 8 µg/mL
[14]
  MIC: 128 µg/mL (≈ 333 µM)
[15]
  MIC: 128 µg/mL
[16]
  MIC: 8 µg/mL (≈ 20.8 µM)
[17]
  MIC: 128 µg/mL (≈ 333 µM)
[18]
  MIC: 8 µg/mL (≈ 20.8 µM)
[19]
  MIC: > 256 µg/mL
[20]
  MIC: > 256 µg/mL
[21]
  MIC: > 256 µg/mL
[22]
  MIC: 128 µg/mL
[23]
  MIC: > 256 µg/mL
[24]
  MIC: 8 µg/mL
[25]
  MIC: 2 µg/mL (≈ 5.2 µM)
[26]
  MIC: 2 µg/mL

## ADC-11 (Acinetobacter baumannii) (from UniProt D6NSM8)
[27]
  kcat/Km: 3e+06 M⁻¹ s⁻¹
[28]
  kcat/Km: 4e+06 M⁻¹ s⁻¹
[29]
  kcat/Km: 200000 M⁻¹ s⁻¹
[30]
  kcat/Km: 4000 M⁻¹ s⁻¹
[31]
  kcat/Km: 1e+06 M⁻¹ s⁻¹
[32]
  kcat/Km: 1000 M⁻¹ s⁻¹
[33]
  kcat: 600 s⁻¹
[34]
  Km: 12 µM
  kcat: 45 s⁻¹
[35]
  kcat: 5 s⁻¹
[36]
  Km: 1700 µM
  kcat: 8 s⁻¹
[37]
  kcat: 0.2 s⁻¹
[38]
  Km: 210 µM
  kcat: 550 s⁻¹
[39]
  Km: 7 µM
  kcat: 5 s⁻¹
[40]
  Km: 10 µM
  kcat: 0.01 s⁻¹

## Beta-lactamase ADC-33 (Acinetobacter baumannii) (from UniProt B2ZTR6)
[41]
  kcat: 0.3 s⁻¹
[42]
  Km: 100 µM
  kcat: 220 s⁻¹
[43]
  Km: 3 µM
[44]
  Km: 16 µM
  kcat: 4 s⁻¹
[45]
  Km: 700 µM
  kcat: 35 s⁻¹
[46]
  Km: 120 µM
  kcat: 140 s⁻¹
[47]
  Km: 9 µM
  kcat: 4 s⁻¹
[48]
  Km: 30 µM
  kcat: 4 s⁻¹
[49]
  kcat/Km: 2e+06 M⁻¹ s⁻¹
[50]
  kcat/Km: 5e+06 M⁻¹ s⁻¹
[51]
  kcat/Km: 250000 M⁻¹ s⁻¹
[52]
  kcat/Km: 50000 M⁻¹ s⁻¹
[53]
  kcat/Km: 1e+06 M⁻¹ s⁻¹
[54]
  kcat/Km: 500000 M⁻¹ s⁻¹
[55]
  kcat/Km: 3e+06 M⁻¹ s⁻¹
[56]
  kcat/Km: 2e+06 M⁻¹ s⁻¹

— ChEMBL document CHEMBL1649315, “Extended-spectrum cephalosporinase in Acinetobacter baumannii” (Antimicrob Agents Chemother, 2010)
